The target of this test is T1, DDX6 (Homo sapiens, UniProt P26196).
T1 chain: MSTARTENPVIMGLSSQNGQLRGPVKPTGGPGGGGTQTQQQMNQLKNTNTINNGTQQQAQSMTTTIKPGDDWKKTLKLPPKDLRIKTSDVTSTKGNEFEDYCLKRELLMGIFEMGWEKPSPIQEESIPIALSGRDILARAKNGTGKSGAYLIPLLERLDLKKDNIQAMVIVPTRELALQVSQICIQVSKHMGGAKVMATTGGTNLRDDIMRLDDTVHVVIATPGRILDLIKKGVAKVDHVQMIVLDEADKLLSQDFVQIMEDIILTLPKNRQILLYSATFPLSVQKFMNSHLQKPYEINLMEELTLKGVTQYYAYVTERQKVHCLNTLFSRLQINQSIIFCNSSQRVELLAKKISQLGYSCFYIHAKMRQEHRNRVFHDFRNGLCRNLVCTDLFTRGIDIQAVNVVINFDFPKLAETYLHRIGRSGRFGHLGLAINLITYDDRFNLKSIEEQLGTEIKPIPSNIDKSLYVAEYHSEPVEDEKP
The test can be described thus: BLI.

Results on one molecule are retold here after publication PMC12418388 (2025).

B1: DDX3X (protein)
chain: SHVAVENALGLDQQFAGLDLNSSDNQSGGSTASKGRYIPPHLRNREATKGFYDKDSSGWSSSKDKDAYSSFGSRSDSRGKSSFFSDRGSGSRGRFDDRGRSDYDGIGSRGDRSGFGKFERGGNSRWCDKSDEDDWSKPLPPSERLEQELFSGGNTGINFEKYDDIPVEATGNNCPPHIESFSDVEMGEIIMGNIELTRYTRPTPVQKHAIPIIKEKRDLMACAQTGSGKTAAFLLPILSQIYSDGPGEALRAMKENGRYGRRKQYPISLVLAPTRELAVQIYEEARKFSYRSRVRPCVVYGGADIGQQIRDLERGCHLLVATPGRLVDMMERGKIGLDFCKYLVLDEADRMLDMGFEPQIRRIVEQDTMPPKGVRHTMMFSATFPKEIQMLARDFLDEYIFLAVGRVGSTSENITQKVVWVEESDKRSFLLDLLNATGKDSLTLVFVETKKGADSLEDFLYHEGYACTSIHGDRSQRDREEALHQFRSGKSPILVATAVAARGLDISNVKHVINFDLPSDIEEYVHRIGRTGRVGNLGLATSFFNERNINITKDLLDLLVEAKQEVPSWLENMAYEHHYKGSSRGRSKSSRFSGGFGARDYRQSSGASSSSFSSSRASSSRSGGGGHGSSRGFGGGGYGGFYNSDGYGGNYNSQGVDWWGN
The molecule B1 gave a Kd of 389 nM.
